Target: FKBP12-rapamycin binding domain of mTOR (FRB)

bioluminescence of the single-chain molecular strain probe F-R86SG-F (FRB-RLuc86SG-FKBP) in COS-7 cells, 10^-6 M rapamycin for 5 h against vehicle (0.1% DMSO), substrate K5; fold intensity: 1.6 fold | bioluminescence of the single-chain molecular strain probe F-R86SG-F (FRB-RLuc86SG-FKBP) in COS-7 cells, 10^-6 M rapamycin for 5 h against vehicle (0.1% DMSO), substrate K6; fold intensity: 3.1 fold
Substance: FK506 binding protein (FKBP) (from UniProt P62942 1-108) (natural protein)

— paper PMC9581999
